Laboratory results reported in patent US7220554B2, “Methods for identifying inhibitors” (priority 2003, dated 2007).

How the values were obtained:
HIV-gpt(Δvif) = assay: Titers of HIV-gpt(Δvif) virions made in 293T or COS7 cells, infectivity in HeLa-CD4 cells; format: cell-based, HIV-1; conditions: for antiviral activity of chimera: titer of virions from 293T cells in the absence of Vif: FIG. 12A
From the text: (§1) To analyze the antiviral activity of pcDNA3.1-APOBEC3G-Myc, human 293T and African green monkey COS7 cells were transiently cotransfected with pcDNA3.1-APOBEC3G-Myc in the presence of vectors for expression of HIV-gpt(wt) or HIV-gpt(Δvif) [these are derivatives of wild-type (wt) or vif deleted (Δvif) HIV-1 with the bacterial gpt gene replacing the viral env gene; Madani & Kabat, J. Virol. […] 74, 5982–5987, 2000]. Virions were subsequently harvested from the culture media and analyzed their infectivities in HeLa-CD4 (clone HI-J) cells. […] Similar results were obtained with owl monkey kidney cells. Thus, HIV-1 Vif neutralizes human APOBEC3G-Myc in both human and monkey cells.

HIV-1 encoded proteins = assay: Immunoblotting of HIV-1-encoded proteins (Gag, Vif) in cotransfected producer cells; format: cell-based
From the text: Expression vectors: pHIV-gpt(wt) and its derivative pHIV-gpt(Δvif) were previously described (Madani & Kabat, J. Virol. 72, 10251–10255, 1998; Page et al., J Virol 64, 5270–5276, 1990; Madani & Kabat, J. Virol. 74, 5982–5987, 2000). pcDNA3.1-Vif was donated by D. Gabuzda (Dana-Farber Cancer Institute, Harvard, Boston, Mass.). Rev-dependent plasmids for expression of the Vif mutants Δ2, Δ5, Δ6, Δ7, Δ9, Δ10, Δ12 and Δ13 (Simon et al., J. Virol. 73, 2675–2681, 1999) were provided by M. Malim (Medical Research Council, Cambridge, UK) and were coexpressed with pHIV-gpt(Δvif). APOBEC3G cDNA was cloned from H9 cells (nonpermissive) by reverse transcriptase-PCR (Barnes, Proc. Natl. Acad. Sci. USA 91, 2216–2220, 1994; Sambrook et al., Molecular Cloning. A Laboratory Manual, Chapter 14, 14.5–14.34., CSHL Press, Cold Spring Harbor, 1989) using primers complementary to the 5′ and 3′ ends of APOBEC3G coding region (Sheehy et al., Nature 418, 646–650, 2002) (upstream primer, 5′-[…]-3′ (SEQ ID NO: 15) containing an XhoI restriction site [underlined]; downstream primer, 5′-[…]-3′ (SEQ ID NO: 16) containing a SfuI restriction site [underlined]). […] Virus-containing fractions were detected by immunoblotting using HIV Immunoglobulin serum (AIDS Research & Reference Reagent Program, Division of AIDS, NIAID, NIH: contributed by NABI and NHLBI). […]

HIV-gpt(wt) = assay: Titers of HIV-gpt(wt) virions made in 293T or COS7 cells, infectivity in HeLa-CD4 cells; format: cell-based, HIV-1; conditions: producer cells 293T and COS7 cotransfected
From the text: as §1

| Molecule | antiviral activity of chimera: titer of virions from 293T cells in the absence of Vif (HIV-gpt(Δvif)) | decrease of titers of HIV-gpt(Δvif) virions (HIV-gpt(Δvif); producer cells 293T and COS7 cotransfected) | synthesis of HIV-1 encoded proteins in the producer cells or their packaging into virions (HIV-1 encoded proteins) | expression of Vif (HIV-1 encoded proteins; FIGS. 3A and 3B) | effect on titers of HIV-gpt(wt) (HIV-gpt(wt)) |
| --- | --- | --- | --- | --- | --- |
| APOBEC3G-luciferase (protein, Synthetic construct human APOBEC3G fused to luciferase) MKPHFRNTVERMYRDTFSYNFYNRPILSRRNTVWLCYEVKTKGPSRPPLDAKIFRGQVYSELKYHPEMRFFHWFSKWRKLHRDQEYEVTWYISWSPCTKCTRDMATFLAEDPKVTLTIFVARLYYFWDPDYQEALRSLCQKRDGPRATMKIMNYDEFQHCWSKFVYSQRELFEPWNNLPKYYILLHIMLGEILRHSMDPPTFTFNFNNEPWVRGRHETYLCYEVERMHNDTWVLLNQRRGFLCNQAPHKHGFLEGRHAELCFLDVIPFWKLDLDQDYRVTCFTSWSPCFSCAQEMAKFISKNKHVSLCIFTARIYDDQGRCQEGLRTLAEAGAKISIMTYSEFKHCWDTFVDHQGCPFQPWDGLDEHSQDLSGRLRAILQNQENKLSMVTDAKNIKKGPAPFYPLEDGTAGEQLHKAMKRYALVPGTIAFTDAHIEVDITYAEYFEMSVRLAEAMKRYGLNTNHRIVVCSENSLQFFMPVLGALFIGVAVAPANDIYNERELLNSMGISQPTVVFVSKKGLQKILNVQKKLPIIQKIIIMDSKTDYQGFQSMYTFVTSHLPPGFNEYDFVPESFDRDKTIALIMNSSGSTGLPKGVALPHRTACVRFSHARDPIFGNQIIPDTAILSVVPFHHGFGMFTTLGYLICGFRVVLMYRFEEELFLRSLQDYKIQSALLVPTLFSFFAKSTLIDKYDLSNLHEIASGGAPLSKEVGEAVAKRFHLPGIRQGYGLTETTSAILITPEGDDKPGAVGKVVPFFEAKVVDLDTGKTLGVNQRGELCVRGPMIMSGYVNNPEATNALIDKDGWLHSGDIAYWDEDEHFFIVDRLKSLIKYKGYQVAPAELESILLQHPNIFDAGVAGLPDDDAGELPAAVVVLEHGKTMTEKEIVDYVASQVTTAKKLRGGVVFVDEVPKGLTGKLDARKIREILIKAKKGGKIAV | antiviral activity only in the absence of Vif |  |  |  |  |
| APOBEC3G-Myc: fusion of human APOBEC3G with Myc epitope and 6×His tag, SEQ ID NO: 2 (protein, Synthetic construct human APOBEC3G fused to Myc) MKPHFRNTVERMYRDTFSYNFYNRPILSRRNTVWLCYEVKTKGPSRPPLDAKIFRGQVYSELKYHPEMRFFHWFSKWRKLHRDQEYEVTWYISWSPCTKCTRDMATFLAEDPKVTLTIFVARLYYFWDPDYQEALRSLCQKRDGPRATMKIMNYDEFQHCWSKFVYSQRELFEPWNNLPKYYILLHIMLGEILRHSMDPPTFTFNFNNEPWVRGRHETYLCYEVERMHNDTWVLLNQRRGFLCNQAPHKHGFLEGRHAELCFLDVIPFWKLDLDQDYRVTCFTSWSPCFSCAQEMAKFISKNKHVSLCIFTARIYDDQGRCQEGLRTLAEAGAKISIMTYSEFKHCWDTFVDHQGCPFQPWDGLDEHSQDLSGRLRAILQNQENFEQKLISEEDLNMHTGHHHHHH | low titer | 25–100 fold | no significant or reproducible effect | no effect | no effect |
